47 variants from the Human Domainome abundance scans (Beltran et al. 2025) can be followed below.

Sequences and labels used below:
B1: Zinc finger homeobox protein 3, residues 2244 to 2299; numbered along this chain, Q15911 (parent)
chain: SSRTRFTDYQLRVLQDFFDANAYPKDDEFEQLSNLLNLPTRVIVVWFQNARQKARK

± gives the uncertainty stated by the source.

The data set covers variants of B1. In words: abundance fitness (aPCA) (normalised: wild type 0, dead -1); higher = more abundant; growth selection in yeast, the domain comes from the species named. The conditions noted are these: Homo sapiens.
SSRTRFTDYQLRVLQDFFDANRYPKDDEFEQLSNLLNLPTRVIVVWFQNARQKARK [A22R]: the abundance fitness is -0.147 ± 0.069.
The figure for SSRTRFTDYQLRVLQDFFDANWYPKDDEFEQLSNLLNLPTRVIVVWFQNARQKARK [A22W] is -0.054 ± 0.12; for SSRTRFTDYQLRVLQDFFDANVYPKDDEFEQLSNLLNLPTRVIVVWFQNARQKARK [A22V] it is -0.14 ± 0.071; for SSRTRFTDYQLRVLQDFFDANTYPKDDEFEQLSNLLNLPTRVIVVWFQNARQKARK [A22T] it is 0.01 ± 0.077.
The figure for SSRTRFTDYQLRVLQDFFDANQYPKDDEFEQLSNLLNLPTRVIVVWFQNARQKARK [A22Q] is -0.127 ± 0.087.
As for SSRTRFTDYQLRVLQDFFDANEYPKDDEFEQLSNLLNLPTRVIVVWFQNARQKARK [A22E], the figure is 0.082 ± 0.11.
As for SSRTRFTDYQLRVLQDFFDANIYPKDDEFEQLSNLLNLPTRVIVVWFQNARQKARK [A22I], the abundance fitness is -0.07 ± 0.092.
As for SSRTRFTDYQLRVLQDFFDANMYPKDDEFEQLSNLLNLPTRVIVVWFQNARQKARK [A22M], the figure is 0.106 ± 0.11; as for SSRTRFTDYQLRVLQDFFDANKYPKDDEFEQLSNLLNLPTRVIVVWFQNARQKARK [A22K], -0.17 ± 0.11.
The figure for SSRTRFTDYQLRVLQDFFDANLYPKDDEFEQLSNLLNLPTRVIVVWFQNARQKARK [A22L] is -0.129 ± 0.07.
For the variant SSRTRFTDYQLRVLQDFFDANPYPKDDEFEQLSNLLNLPTRVIVVWFQNARQKARK [A22P], the abundance fitness was determined as 0.101 ± 0.073.
As for SSRTRFTDYQLRVLQDFFDANGYPKDDEFEQLSNLLNLPTRVIVVWFQNARQKARK [A22G], the figure is 0.015 ± 0.079.
For the variant SSRTRFTDYQLRVLQDFFDANDYPKDDEFEQLSNLLNLPTRVIVVWFQNARQKARK [A22D], the abundance fitness was found to be 0.219 ± 0.093.
Turning to SSRTRFTDYQLRVLQDFFDANAYPCDDEFEQLSNLLNLPTRVIVVWFQNARQKARK [K25C], the abundance fitness was -0.184 ± 0.14.
The figure for SSRTRFTDYQLRVLQDFFDANAYPEDDEFEQLSNLLNLPTRVIVVWFQNARQKARK [K25E] is -0.306 ± 0.11; for SSRTRFTDYQLRVLQDFFDANAYPFDDEFEQLSNLLNLPTRVIVVWFQNARQKARK [K25F] it is -0.338 ± 0.21; for SSRTRFTDYQLRVLQDFFDANAYPVDDEFEQLSNLLNLPTRVIVVWFQNARQKARK [K25V] it is -0.115 ± 0.086.
Turning to SSRTRFTDYQLRVLQDFFDANAYPLDDEFEQLSNLLNLPTRVIVVWFQNARQKARK [K25L], the abundance fitness is -0.136 ± 0.084.
As for SSRTRFTDYQLRVLQDFFDANAYPIDDEFEQLSNLLNLPTRVIVVWFQNARQKARK [K25I], the figure is -0.226 ± 0.19; as for SSRTRFTDYQLRVLQDFFDANAYPQDDEFEQLSNLLNLPTRVIVVWFQNARQKARK [K25Q], -0.26 ± 0.14.
The figure for SSRTRFTDYQLRVLQDFFDANAYPPDDEFEQLSNLLNLPTRVIVVWFQNARQKARK [K25P] is -0.228 ± 0.13.
Turning to SSRTRFTDYQLRVLQDFFDANAYPGDDEFEQLSNLLNLPTRVIVVWFQNARQKARK [K25G], the abundance fitness is -0.14 ± 0.085.
For the variant SSRTRFTDYQLRVLQDFFDANAYPTDDEFEQLSNLLNLPTRVIVVWFQNARQKARK [K25T], the abundance fitness was -0.161 ± 0.11.
The figure for SSRTRFTDYQLRVLQDFFDANAYPSDDEFEQLSNLLNLPTRVIVVWFQNARQKARK [K25S] is -0.133 ± 0.11; for SSRTRFTDYQLRVLQDFFDANAYPRDDEFEQLSNLLNLPTRVIVVWFQNARQKARK [K25R] it is 0.013 ± 0.086.
As for SSRTRFTDYQLRVLQDFFDANAYPWDDEFEQLSNLLNLPTRVIVVWFQNARQKARK [K25W], the figure is -0.512 ± 0.13; as for SSRTRFTDYQLRVLQDFFDANAYPDDDEFEQLSNLLNLPTRVIVVWFQNARQKARK [K25D], -0.466 ± 0.15; as for SSRTRFTDYQLRVLQDFFDANAYPHDDEFEQLSNLLNLPTRVIVVWFQNARQKARK [K25H], -0.267 ± 0.16.
The figure for SSRTRFTDYQLRVLQDFFDANAYPADDEFEQLSNLLNLPTRVIVVWFQNARQKARK [K25A] is -0.075 ± 0.095.
As to SSRTRFTDYQLRVLQDFFDANAAPKDDEFEQLSNLLNLPTRVIVVWFQNARQKARK [Y23A], the abundance fitness is -0.188 ± 0.085.
Consider SSRTRFTDYQLRVLQDFFDANAWPKDDEFEQLSNLLNLPTRVIVVWFQNARQKARK [Y23W], for which the abundance fitness worked out at 0.019 ± 0.081.
As for SSRTRFTDYQLRVLQDFFDANAVPKDDEFEQLSNLLNLPTRVIVVWFQNARQKARK [Y23V], the figure is -0.099 ± 0.075; as for SSRTRFTDYQLRVLQDFFDANAEPKDDEFEQLSNLLNLPTRVIVVWFQNARQKARK [Y23E], 0.139 ± 0.089.
In the case of SSRTRFTDYQLRVLQDFFDANADPKDDEFEQLSNLLNLPTRVIVVWFQNARQKARK [Y23D], the abundance fitness was -0.018 ± 0.13.
As for SSRTRFTDYQLRVLQDFFDANAKPKDDEFEQLSNLLNLPTRVIVVWFQNARQKARK [Y23K], the abundance fitness is -0.13 ± 0.099.
SSRTRFTDYQLRVLQDFFDANAIPKDDEFEQLSNLLNLPTRVIVVWFQNARQKARK [Y23I]: the abundance fitness stood at 0.092 ± 0.13.
As for SSRTRFTDYQLRVLQDFFDANAPPKDDEFEQLSNLLNLPTRVIVVWFQNARQKARK [Y23P], the figure is -0.749 ± 0.14; as for SSRTRFTDYQLRVLQDFFDANATPKDDEFEQLSNLLNLPTRVIVVWFQNARQKARK [Y23T], -0.043 ± 0.093.
The figure for SSRTRFTDYQLRVLQDFFDANANPKDDEFEQLSNLLNLPTRVIVVWFQNARQKARK [Y23N] is 0.013 ± 0.16; for SSRTRFTDYQLRVLQDFFDANARPKDDEFEQLSNLLNLPTRVIVVWFQNARQKARK [Y23R] it is -0.019 ± 0.068; for SSRTRFTDYQLRVLQDFFDANAFPKDDEFEQLSNLLNLPTRVIVVWFQNARQKARK [Y23F] it is 0.122 ± 0.14.
The figure for SSRTRFTDYQLRVLQDFFDANASPKDDEFEQLSNLLNLPTRVIVVWFQNARQKARK [Y23S] is -0.051 ± 0.092; for SSRTRFTDYQLRVLQDFFDANAQPKDDEFEQLSNLLNLPTRVIVVWFQNARQKARK [Y23Q] it is -0.011 ± 0.1.
Regarding SSRTRFTDYQLRVLQDFFDANALPKDDEFEQLSNLLNLPTRVIVVWFQNARQKARK [Y23L], the abundance fitness is -0.161 ± 0.073.
With SSRTRFTDYQLRVLQDFFDANACPKDDEFEQLSNLLNLPTRVIVVWFQNARQKARK [Y23C], the abundance fitness was -0.283 ± 0.11.
Consider SSRTRFTDYQLRVLQDFFDANAGPKDDEFEQLSNLLNLPTRVIVVWFQNARQKARK [Y23G], for which the abundance fitness was -0.332 ± 0.068.
Turning to SSRTRFTDYQLRVLQDFFDANAMPKDDEFEQLSNLLNLPTRVIVVWFQNARQKARK [Y23M], the abundance fitness amounted to 0.041 ± 0.092.
